# Results as given in IntAct's records for PubMed 19363481.
# B1: DNA repair protein rad60 (Schizosaccharomyces pombe (strain ATCC 38366 / 972)), Q9USX3 (parent)
# chain: MDNLDEDDLAFFSKPIKKPPLNYAKQLIASSSDSEEESELDTNKQALEHINAQKNITHNENKSAEPLSRQSTILDADEGNQDVSDTTPNACLNEGRHSPKSAISCVTQPVSPVYNTRAAANLRNNSINSEAALSTTSSLLDDDFARRLEEIDRQVQEFEKSSSDMDVQIHTHKREIEEDDDNTSADVPLLKHSKSDHSTLYHSKSEFSTNEPVISVVLQLAVIGQRIPNSNISLPRDWEAPLFFKVKSNQQFRRVRIAYSERKKVDNVVLVFQNQRLWDYGTPKGAGMLKVDTRLVVHAYCHSDFISLKRIKELEVEKLSSVTEDSTAQTCKLITLLLRSSKSEDLRLSIPVDFTVKDLIKRYCTEVKISFHERIRLEFEGEWLDPNDQVQSTELEDEDQVSVVLD
# partner: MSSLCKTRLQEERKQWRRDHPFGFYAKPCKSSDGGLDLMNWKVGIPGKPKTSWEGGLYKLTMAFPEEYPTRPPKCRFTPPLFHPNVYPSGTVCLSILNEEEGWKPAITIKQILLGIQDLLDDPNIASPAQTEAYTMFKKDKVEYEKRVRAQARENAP
# Variants of: B1
# Conditions: with ubc9_schpo hus5, P40984
row,effect of a mutation on the interaction,Variant
1,disrupting interaction,MDNLDEDDLAFFSKPIKKPPLNYAKQLIASSSDSEEESELDTNKQALEHINAQKNITHNENKSAEPLSRQSTILDADEGNQDVSDTTPNACLNEGRHSPKSAISCVTQPVSPVYNTRAAANLRNNSINSEAALSTTSSLLDDDFARRLEEIDRQVQEFEKSSSDMDVQIHTHKREIEEDDDNTSADVPLLKHSKSDHSTLYHSKSEFSTNEPVISVVLQLAVIGQRIPNSNISLPRDWEAPLFFKVKSNQQFRRVRIAYSERKKVDNVVLVFQNQRLWDYGTPKGAGMLKVDTRLVVHAYCHSDFISLKRIKELEVEKLSSVTEDSTAQTCKLITLLLRSSKSEDLRLSIPVDFTVKDLIKRYCTEVKISFHERIRLEFRGEWLDPNDQVQSTELEDEDQVSVVLD [E380R]
